The values that follow come from patent publication US20150166647A1 (VLST, published 2015).

Experiment [1] addresses T1, human HCC-2/MIP-1δ/CCL15 (human, UniProt Q16663 46-113).
T1 sequence: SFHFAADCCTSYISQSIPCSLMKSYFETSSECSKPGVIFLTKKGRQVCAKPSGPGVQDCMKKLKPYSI
In words: MSD electrochemiluminescence assay; chemokine coated at 1 µg/mL, 7D12A at 3 µg/mL; background = BSA.

In another experiment the target is T2, SDF.
T2 construct: also called SDF-1/CXCL12; CXCL12
The experiment is described as above.

Experiment [2] addresses T3, human MPIF-1/CCL23 (human, UniProt P55773 46-120).
T3 sequence: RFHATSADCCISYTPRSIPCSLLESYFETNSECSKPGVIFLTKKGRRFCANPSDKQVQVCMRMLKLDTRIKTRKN
The experiment is described as above.

The target in experiment [3] is T4, human MCP-1/CCL2 (human, UniProt P13500 24-99).
T4 construct: also called Biotin-MCP1
Described as above.

The target in experiment [4] is T5, MDC.
T5 construct: also called MDC/CCL22; CCL22
T5 chemokine: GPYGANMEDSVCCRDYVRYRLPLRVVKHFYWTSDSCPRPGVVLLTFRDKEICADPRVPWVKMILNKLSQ
The description is as above.

In another experiment the target is T6, ENA-78.
T6 construct: also called ENA-78/CXCL5; CXCL5
In words: MSD electrochemiluminescence assay; chemokine coated at 1 µg/mL, 18V4F at 3 µg/mL; background = BSA.

Experiment [5] addresses T1, human HCC-2/MIP-1δ/CCL15. Described as above.
For experiment [6], the target named is T3, human MPIF-1/CCL23. Described as above.
In another experiment the target is T7, ELC.
T7 construct: also called ELC/MIP-3β/CCL19; CCL19
T7 chemokine: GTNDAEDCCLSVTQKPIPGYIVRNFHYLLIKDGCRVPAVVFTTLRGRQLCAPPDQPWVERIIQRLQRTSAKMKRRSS
The experiment is described as above.

For another experiment, the target named is T8, Eotaxin-2.
T8 construct: also called Eotaxin-2/CCL24; CCL24
T8 chemokine: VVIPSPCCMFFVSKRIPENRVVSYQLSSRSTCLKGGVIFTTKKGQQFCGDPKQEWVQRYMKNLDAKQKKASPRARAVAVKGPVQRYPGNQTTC
The description is as above.

The next experiment concerns the target T9, HCC-4.
T9 construct: also called HCC-4/CCL16; CCL16
T9 chemokine: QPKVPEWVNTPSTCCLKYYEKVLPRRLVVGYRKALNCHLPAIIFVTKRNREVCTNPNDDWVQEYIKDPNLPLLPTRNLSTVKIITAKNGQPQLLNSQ
The experiment is described as above.

In experiment [7] the target is T4, human MCP-1/CCL2. Described as above.
The next experiment deals with T10, MIP3-α.
T10 construct: also called LARC/MIP-3α/CCL20; CCL20
The description is as above.

The target in the next experiment is T11, MCP-4.
T11 construct: also called MCP-4/CCL13; CCL13
The experiment is described as above.

Experiment [8] addresses T5, MDC. Described as above.
Another experiment concerns the target T12, I-309.
T12 construct: also called I-309/CCL1; CCL1
T12 chemokine: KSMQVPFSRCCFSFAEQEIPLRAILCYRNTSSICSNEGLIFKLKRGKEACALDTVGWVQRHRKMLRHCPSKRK
The experiment is described as above.

In the next experiment the target is T13, Eotaxin.
T13 construct: also called Eotaxin/CCL11; CCL11
Described as above.

For a further experiment, the target named is T14, MCP-3.
T14 construct: also called MCP-3/CCL7; CCL7
The description is as above.

For the next experiment, the target named is T15, human PARC/CCL18 (human, UniProt P55774 21-89).
T15 sequence: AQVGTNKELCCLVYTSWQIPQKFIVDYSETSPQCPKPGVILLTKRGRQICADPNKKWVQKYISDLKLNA
The description is as above.

A further experiment addresses T16, human HCC-1/CCL14/CCL14a (human, UniProt Q16627 28-93).
T16 sequence: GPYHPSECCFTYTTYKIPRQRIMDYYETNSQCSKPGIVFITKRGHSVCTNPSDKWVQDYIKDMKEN
The experiment is described as above.

T4 sequence (P13500 24-99 limits assumed): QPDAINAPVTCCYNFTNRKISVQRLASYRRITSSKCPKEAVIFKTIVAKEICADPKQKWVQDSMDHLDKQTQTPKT
T6 sequence (chemokine, as listed by the source): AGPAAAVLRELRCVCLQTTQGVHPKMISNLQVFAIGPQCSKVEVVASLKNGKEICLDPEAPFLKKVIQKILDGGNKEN
T2 sequence (chemokine, as listed by the source): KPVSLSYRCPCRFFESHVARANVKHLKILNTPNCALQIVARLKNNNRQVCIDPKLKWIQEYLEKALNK
T11 sequence (chemokine, as listed by the source): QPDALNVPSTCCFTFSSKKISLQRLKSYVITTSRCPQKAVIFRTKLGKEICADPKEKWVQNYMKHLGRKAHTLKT
T10 sequence (chemokine, as listed by the source): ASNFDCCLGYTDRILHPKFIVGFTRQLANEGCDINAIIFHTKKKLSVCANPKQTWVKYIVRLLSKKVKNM
T13 sequence (chemokine, as listed by the source): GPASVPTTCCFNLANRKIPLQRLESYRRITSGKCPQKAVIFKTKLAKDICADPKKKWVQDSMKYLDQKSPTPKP
T14 sequence (chemokine, as listed by the source): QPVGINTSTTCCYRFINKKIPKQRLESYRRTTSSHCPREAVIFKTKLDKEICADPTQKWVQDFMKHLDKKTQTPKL

B1: monoclonal antibody 7D12A (antibody, V domains shown)
VH: EVHLQESGPSLVKPSQTLSLTCSVTGDSITNGYWNWIRKFPGNKLDYMGYISYDGNTYYNPSLKSRFSITRDTSKNQYYLQLNSVTTEDTATYYCSRGDYGTYVMDYWGQGTSVTVSS
VL: NIVLTQSPVSLAVSLGQRATISCRASESVDSHGNSFMHWYQQKPGQPPKLLIYLASNLESGVPARFTGGGSGSDFTLTIDPVEADDVGTYYCQQNNEDPYTFGGGTKLEIK
notes: also called MAb 7D12A
For the molecule B1, the binding result is given as “no binding (tested: 3 µg/mL)” with human HCC-2/MIP-1δ/CCL15 [1]; “no binding (tested: 3 µg/mL)” with SDF; “binds” with human MPIF-1/CCL23 [2]; “no binding (tested: 3 µg/mL)” with human MCP-1/CCL2 [3]; “no binding (tested: 3 µg/mL)” with MDC [4].

B2: monoclonal antibody 18V4F (antibody, V domains shown)
VH: QVQLKESGPGLVAPSQSLSITCTVSGFSLTGYGIHWVRQPPGKGLEWLGVIWPGGGTNYNSALMSRLSISKDNSKSQVFLKMNSLQTDDTAMYYCARGPLITTEVSMDYWGQGTSVTVSS
VL: QAVVTQESALTTSPGETVTLTCRSNTGAVTTSNYANWVQEKPDHLFTGLIGGTNNRAPGVPARFSGSLIGDKAALTITGAQTEDEAIYFCALWYSNHWVFGGGTKLTVLG
notes: also called MAb 18V4F
In the case of B2, the binding result in the experiment with ENA-78, with human HCC-2/MIP-1δ/CCL15 [5], in the experiment with human MPIF-1/CCL23 [6], with ELC, with Eotaxin-2 and in the experiment with HCC-4 was “no binding (tested: 3 µg/mL)” in each case. Moreover, the binding result in the experiment with human MCP-1/CCL2 [7], in the experiment with MIP3-α, with MCP-4, with MDC [8], with I-309 and with Eotaxin was “no binding (tested: 3 µg/mL)” in each case. The binding result with MCP-3, in the experiment with human PARC/CCL18 and with human HCC-1/CCL14/CCL14a was “no binding (tested: 3 µg/mL)” in each case.
